Source: publication PMC9482650, “Quantitative fragmentomics allow affinity mapping of interactomes” (Nature Communications, 2022)

Columns and labels:
Test in all cases: holdup assay
Set-up in all cases: key: below the threshold = too weak to quantify, mostly under pKd 3.1 to 4
HTRA3, P83110 = molecular target: T1, HTRA3, P83110
T1 sequence (P83110 354-453, limits assumed, looked up): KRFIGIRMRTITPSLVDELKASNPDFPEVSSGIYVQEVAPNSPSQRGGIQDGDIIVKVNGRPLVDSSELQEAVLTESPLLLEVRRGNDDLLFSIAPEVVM

HTRA4, P83105 = molecular target: T2, HTRA4, P83105
T2 sequence (P83105 378-476, limits assumed, looked up): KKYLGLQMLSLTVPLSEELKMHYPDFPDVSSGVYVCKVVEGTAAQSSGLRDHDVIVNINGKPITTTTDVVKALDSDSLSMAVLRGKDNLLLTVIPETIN

Inadl_3, Q8NI35 = molecular target: Inadl_3, Q8NI35
SNTB1, Q13884 = molecular target: T3, SNTB1, Q13884
T3 sequence (Q13884 107-205, limits assumed, looked up): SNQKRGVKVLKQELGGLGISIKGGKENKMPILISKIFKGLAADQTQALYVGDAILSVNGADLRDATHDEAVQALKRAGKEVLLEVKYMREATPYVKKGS

PARD3_3, Q8TEW0 = molecular target: PARD3_3, Q8TEW0
IL16_3, Q14005 = molecular target: IL16_3, Q14005
GRIP1_7, Q9Y3R0 = molecular target: T4, GRIP1_7, Q9Y3R0
T4 sequence (Q9Y3R0 999-1096, limits assumed, looked up): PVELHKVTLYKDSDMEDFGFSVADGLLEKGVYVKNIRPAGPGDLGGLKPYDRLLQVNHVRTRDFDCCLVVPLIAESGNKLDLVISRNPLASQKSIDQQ

HTRA1, Q92743 = molecular target: HTRA1, Q92743
GORASP1, Q9BQQ3 = molecular target: GORASP1, Q9BQQ3
FRMPD2_1, Q68DX3 = molecular target: FRMPD2_1, Q68DX3
PCLO, Q9Y6V0 = molecular target: T5, PCLO, Q9Y6V0
T5 sequence (Q9Y6V0 4491-4600, limits assumed, looked up): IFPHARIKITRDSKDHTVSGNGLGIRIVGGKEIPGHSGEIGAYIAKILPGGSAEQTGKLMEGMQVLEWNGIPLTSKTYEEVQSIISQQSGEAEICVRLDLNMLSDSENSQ

LIMK2, P53671 = molecular target: LIMK2, P53671
LNX1_3, Q8TBB1 = molecular target: LNX1_3, Q8TBB1
NHERF4_1, Q86UT5-2 = molecular target: NHERF4_1, Q86UT5-2
SNTG1, Q9NSN8 = molecular target: T6, SNTG1, Q9NSN8
T6 sequence (Q9NSN8 52-150, limits assumed, looked up): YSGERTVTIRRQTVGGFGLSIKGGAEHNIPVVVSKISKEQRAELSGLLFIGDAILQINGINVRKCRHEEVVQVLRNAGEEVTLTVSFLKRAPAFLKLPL

DLG5_1, Q8TDM6 = molecular target: DLG5_1, Q8TDM6
FRMPD4, Q14CM0 = molecular target: FRMPD4, Q14CM0
GRASP, Q7Z6J2 = molecular target: GRASP, Q7Z6J2
MPDZ_12, O75970 = molecular target: T7, MPDZ_12, O75970
T7 sequence (O75970 1857-1958, limits assumed, looked up): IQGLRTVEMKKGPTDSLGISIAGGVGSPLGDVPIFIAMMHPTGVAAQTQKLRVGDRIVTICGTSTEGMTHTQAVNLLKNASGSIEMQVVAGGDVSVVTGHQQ

PDZRN3_1, Q9UPQ7 = molecular target: T8, PDZRN3_1, Q9UPQ7
T8 sequence (Q9UPQ7 244-349, limits assumed, looked up): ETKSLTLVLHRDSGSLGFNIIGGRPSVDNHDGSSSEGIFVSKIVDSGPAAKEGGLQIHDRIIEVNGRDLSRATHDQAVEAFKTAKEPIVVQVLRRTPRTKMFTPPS

IL16_4, Q14005 = molecular target: IL16_4, Q14005
LNX2_2, Q8N448 = molecular target: T9, LNX2_2, Q8N448
T9 sequence (Q8N448 334-432, limits assumed, looked up): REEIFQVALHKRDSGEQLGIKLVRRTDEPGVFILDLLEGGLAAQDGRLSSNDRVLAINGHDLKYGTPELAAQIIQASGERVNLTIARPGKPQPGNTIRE

FRMPD2_2, Q68DX3 = molecular target: FRMPD2_2, Q68DX3
Inadl_5, Q8NI35 = molecular target: Inadl_5, Q8NI35
RADIL, Q96JH8 = molecular target: T10, RADIL, Q96JH8
T10 sequence (Q96JH8 971-1071, limits assumed, looked up): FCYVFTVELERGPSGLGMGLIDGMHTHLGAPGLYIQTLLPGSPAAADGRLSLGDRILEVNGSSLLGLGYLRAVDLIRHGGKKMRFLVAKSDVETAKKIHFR

MPP6, Q9NZW5 = molecular target: T11, MPP6, Q9NZW5
T11 sequence (Q9NZW5 125-219, limits assumed, looked up): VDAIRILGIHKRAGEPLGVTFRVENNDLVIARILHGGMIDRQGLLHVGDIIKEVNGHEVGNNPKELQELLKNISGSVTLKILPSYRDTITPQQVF

[1] = plain residues with an end cap or a label only (N-terminal biotin on a linker: ado-ado)
[2] = plain residues with an end cap or a label only (N-terminal biotin on a linker: ahx)
[3] = plain residues with an end cap or a label only (N-terminal biotin on a linker: ttds)

Sequence of FRMPD4, Q14CM0 (Q14CM0 67-160): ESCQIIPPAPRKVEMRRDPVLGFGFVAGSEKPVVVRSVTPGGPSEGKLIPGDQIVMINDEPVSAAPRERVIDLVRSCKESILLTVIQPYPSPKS
Sequence of FRMPD2_2, Q68DX3 (Q68DX3 944-1038): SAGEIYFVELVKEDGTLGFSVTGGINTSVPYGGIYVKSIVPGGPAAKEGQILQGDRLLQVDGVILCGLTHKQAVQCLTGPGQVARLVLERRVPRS
Sequence of GRASP, Q7Z6J2 (Q7Z6J2 96-193): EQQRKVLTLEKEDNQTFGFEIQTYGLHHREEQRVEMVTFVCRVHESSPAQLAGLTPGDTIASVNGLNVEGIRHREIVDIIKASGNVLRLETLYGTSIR
Sequence of LNX1_3, Q8TBB1 (Q8TBB1 500-596): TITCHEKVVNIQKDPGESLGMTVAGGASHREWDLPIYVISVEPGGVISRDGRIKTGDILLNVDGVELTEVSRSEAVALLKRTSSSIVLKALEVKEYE
Sequence of Inadl_3, Q8NI35 (Q8NI35 359-469): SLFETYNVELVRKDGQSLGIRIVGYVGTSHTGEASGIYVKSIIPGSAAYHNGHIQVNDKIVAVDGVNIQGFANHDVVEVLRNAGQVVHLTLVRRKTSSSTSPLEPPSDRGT
Sequence of GORASP1, Q9BQQ3 (Q9BQQ3 1-208): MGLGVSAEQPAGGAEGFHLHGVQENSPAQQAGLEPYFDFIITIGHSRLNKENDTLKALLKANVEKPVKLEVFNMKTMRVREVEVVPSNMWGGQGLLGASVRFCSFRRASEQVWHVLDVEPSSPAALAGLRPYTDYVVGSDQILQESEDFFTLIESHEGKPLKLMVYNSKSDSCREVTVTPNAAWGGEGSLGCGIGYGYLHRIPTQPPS
Sequence of FRMPD2_1, Q68DX3 (Q68DX3 770-861): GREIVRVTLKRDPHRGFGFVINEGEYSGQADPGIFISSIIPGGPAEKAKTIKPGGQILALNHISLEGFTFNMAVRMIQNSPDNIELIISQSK
Sequence of Inadl_5, Q8NI35 (Q8NI35 673-780): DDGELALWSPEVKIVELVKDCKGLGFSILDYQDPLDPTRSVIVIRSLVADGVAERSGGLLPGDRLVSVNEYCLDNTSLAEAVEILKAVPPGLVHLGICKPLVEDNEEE
Sequence of DLG5_1, Q8TDM6 (Q8TDM6 617-713): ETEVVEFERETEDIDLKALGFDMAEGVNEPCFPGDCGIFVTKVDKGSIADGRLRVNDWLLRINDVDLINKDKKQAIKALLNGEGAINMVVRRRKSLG
Sequence of IL16_3, Q14005 (Q14005 1107-1207): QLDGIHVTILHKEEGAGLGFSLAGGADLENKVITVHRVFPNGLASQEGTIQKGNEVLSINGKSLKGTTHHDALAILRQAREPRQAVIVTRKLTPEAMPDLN
Sequence of HTRA1, Q92743 (Q92743 360-477): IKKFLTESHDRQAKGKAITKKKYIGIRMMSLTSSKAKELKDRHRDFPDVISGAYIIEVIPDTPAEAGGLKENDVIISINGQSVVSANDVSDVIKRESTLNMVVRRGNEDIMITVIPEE
Sequence of PARD3_3, Q8TEW0 (Q8TEW0 582-685): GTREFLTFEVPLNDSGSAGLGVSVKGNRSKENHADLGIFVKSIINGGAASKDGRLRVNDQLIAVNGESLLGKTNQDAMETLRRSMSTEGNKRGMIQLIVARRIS
Sequence of NHERF4_1, Q86UT5-2 (Q86UT5 other isoform, or with tags, fused parts or gaps): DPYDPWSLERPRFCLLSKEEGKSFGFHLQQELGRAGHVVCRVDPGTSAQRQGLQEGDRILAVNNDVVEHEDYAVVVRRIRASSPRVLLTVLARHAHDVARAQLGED
Sequence of IL16_4, Q14005 (Q14005 1229-1329): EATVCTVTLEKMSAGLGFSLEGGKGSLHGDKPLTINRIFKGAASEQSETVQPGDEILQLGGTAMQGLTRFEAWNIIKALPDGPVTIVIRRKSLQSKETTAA
Sequence of LIMK2, P53671 (P53671 143-248): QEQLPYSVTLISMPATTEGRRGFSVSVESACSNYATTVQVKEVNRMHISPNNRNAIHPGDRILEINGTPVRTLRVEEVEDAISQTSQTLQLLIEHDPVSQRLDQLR

PDSYHRRDFW [U2AF2, P26368]
pKd (HTRA3, P83110; [1]): 4.01
pKd (HTRA4, P83105; [1]): 3.99
pKd (Inadl_3, Q8NI35; [1]): below the threshold
pKd (SNTB1, Q13884; [1]): below the threshold
pKd (PARD3_3, Q8TEW0; [1]): below the threshold
pKd (IL16_3, Q14005; [1]): below the threshold
pKd (GRIP1_7, Q9Y3R0; [1]): below the threshold
pKd (HTRA1, Q92743; [1]): 4.14
pKd (GORASP1, Q9BQQ3; [1]): 3.52
pKd (FRMPD2_1, Q68DX3; [1]): below the threshold
pKd (PCLO, Q9Y6V0; [1]): below the threshold
pKd (LIMK2, P53671; [1]): below the threshold
pKd (LNX1_3, Q8TBB1; [1]): below the threshold
pKd (NHERF4_1, Q86UT5-2; [1]): below the threshold
pKd (SNTG1, Q9NSN8; [1]): below the threshold
pKd (DLG5_1, Q8TDM6; [1]): below the threshold
pKd (FRMPD4, Q14CM0; [1]): 3.71
pKd (GRASP, Q7Z6J2; [1]): below the threshold
pKd (MPDZ_12, O75970; [1]): below the threshold
pKd (PDZRN3_1, Q9UPQ7; [1]): below the threshold
pKd (IL16_4, Q14005; [1]): 3.68
pKd (LNX2_2, Q8N448; [1]): below the threshold
pKd (FRMPD2_2, Q68DX3; [1]): below the threshold
pKd (Inadl_5, Q8NI35; [1]): below the threshold
pKd (RADIL, Q96JH8; [1]): below the threshold
pKd (MPP6, Q9NZW5; [1]): below the threshold

KDECVIATEV [DLL1, O00548]
pKd (HTRA3, P83110; [2]): below the threshold
pKd (HTRA4, P83105; [2]): 3.53
pKd (Inadl_3, Q8NI35; [2]): 3.5
pKd (SNTB1, Q13884; [2]): 3.64
pKd (PARD3_3, Q8TEW0; [2]): below the threshold
pKd (IL16_3, Q14005; [2]): below the threshold
pKd (GRIP1_7, Q9Y3R0; [2]): below the threshold
pKd (HTRA1, Q92743; [2]): 4.04
pKd (GORASP1, Q9BQQ3; [2]): below the threshold
pKd (FRMPD2_1, Q68DX3; [2]): below the threshold
pKd (PCLO, Q9Y6V0; [2]): below the threshold
pKd (LIMK2, P53671; [2]): below the threshold
pKd (LNX1_3, Q8TBB1; [2]): below the threshold
pKd (NHERF4_1, Q86UT5-2; [2]): below the threshold
pKd (SNTG1, Q9NSN8; [2]): 3.94
pKd (DLG5_1, Q8TDM6; [2]): below the threshold
pKd (FRMPD4, Q14CM0; [2]): below the threshold
pKd (GRASP, Q7Z6J2; [2]): 4.31
pKd (MPDZ_12, O75970; [2]): below the threshold
pKd (PDZRN3_1, Q9UPQ7; [2]): below the threshold
pKd (IL16_4, Q14005; [2]): below the threshold
pKd (LNX2_2, Q8N448; [2]): 4.27
pKd (FRMPD2_2, Q68DX3; [2]): 3.99
pKd (Inadl_5, Q8NI35; [2]): below the threshold
pKd (RADIL, Q96JH8; [2]): 3.61
pKd (MPP6, Q9NZW5; [2]): below the threshold

AKPQPVDSWV [ARVCF, O00192]
pKd (HTRA3, P83110; [2]): 5.51
pKd (HTRA4, P83105; [2]): below the threshold
pKd (Inadl_3, Q8NI35; [2]): 3.86
pKd (SNTB1, Q13884; [2]): 3.5
pKd (PARD3_3, Q8TEW0; [2]): 4.05
pKd (IL16_3, Q14005; [2]): below the threshold
pKd (GRIP1_7, Q9Y3R0; [2]): below the threshold
pKd (HTRA1, Q92743; [2]): 4.6
pKd (GORASP1, Q9BQQ3; [2]): 4
pKd (FRMPD2_1, Q68DX3; [2]): below the threshold
pKd (PCLO, Q9Y6V0; [2]): below the threshold
pKd (LIMK2, P53671; [2]): below the threshold
pKd (LNX1_3, Q8TBB1; [2]): below the threshold
pKd (NHERF4_1, Q86UT5-2; [2]): below the threshold
pKd (SNTG1, Q9NSN8; [2]): 4.64
pKd (DLG5_1, Q8TDM6; [2]): below the threshold
pKd (FRMPD4, Q14CM0; [2]): below the threshold
pKd (GRASP, Q7Z6J2; [2]): below the threshold
pKd (MPDZ_12, O75970; [2]): 4.4
pKd (PDZRN3_1, Q9UPQ7; [2]): below the threshold
pKd (IL16_4, Q14005; [2]): below the threshold
pKd (LNX2_2, Q8N448; [2]): 4.44
pKd (FRMPD2_2, Q68DX3; [2]): 4.25
pKd (Inadl_5, Q8NI35; [2]): below the threshold
pKd (RADIL, Q96JH8; [2]): 4.46
pKd (MPP6, Q9NZW5; [2]): below the threshold

KQVVPFSSSV [GDA, Q9Y2T3]
pKd (HTRA3, P83110; [3]): below the threshold
pKd (HTRA4, P83105; [3]): below the threshold
pKd (Inadl_3, Q8NI35; [3]): below the threshold
pKd (SNTB1, Q13884; [3]): 3.65
pKd (PARD3_3, Q8TEW0; [3]): below the threshold
pKd (IL16_3, Q14005; [3]): below the threshold
pKd (GRIP1_7, Q9Y3R0; [3]): below the threshold
pKd (HTRA1, Q92743; [3]): below the threshold
pKd (GORASP1, Q9BQQ3; [3]): below the threshold
pKd (FRMPD2_1, Q68DX3; [3]): below the threshold
pKd (PCLO, Q9Y6V0; [3]): below the threshold
pKd (LIMK2, P53671; [3]): below the threshold
pKd (LNX1_3, Q8TBB1; [3]): 3.55
pKd (NHERF4_1, Q86UT5-2; [3]): below the threshold
pKd (SNTG1, Q9NSN8; [3]): 3.71
pKd (DLG5_1, Q8TDM6; [3]): below the threshold
pKd (FRMPD4, Q14CM0; [3]): below the threshold
pKd (GRASP, Q7Z6J2; [3]): 3.86
pKd (MPDZ_12, O75970; [3]): 3.66
pKd (PDZRN3_1, Q9UPQ7; [3]): below the threshold
pKd (IL16_4, Q14005; [3]): below the threshold
pKd (LNX2_2, Q8N448; [3]): 3.65
pKd (FRMPD2_2, Q68DX3; [3]): below the threshold
pKd (Inadl_5, Q8NI35; [3]): below the threshold
pKd (RADIL, Q96JH8; [3]): 3.76
pKd (MPP6, Q9NZW5; [3]): below the threshold

GARVSKETPL [MAPK12, P53778]
pKd (HTRA3, P83110; [3]): below the threshold
pKd (HTRA4, P83105; [3]): below the threshold
pKd (Inadl_3, Q8NI35; [3]): below the threshold
pKd (SNTB1, Q13884; [3]): 4.71
pKd (PARD3_3, Q8TEW0; [3]): below the threshold
pKd (IL16_3, Q14005; [3]): below the threshold
pKd (GRIP1_7, Q9Y3R0; [3]): below the threshold
pKd (HTRA1, Q92743; [3]): below the threshold
pKd (GORASP1, Q9BQQ3; [3]): below the threshold
pKd (FRMPD2_1, Q68DX3; [3]): below the threshold
pKd (PCLO, Q9Y6V0; [3]): below the threshold
pKd (LIMK2, P53671; [3]): below the threshold
pKd (LNX1_3, Q8TBB1; [3]): below the threshold
pKd (NHERF4_1, Q86UT5-2; [3]): 3.85
pKd (SNTG1, Q9NSN8; [3]): below the threshold
pKd (DLG5_1, Q8TDM6; [3]): below the threshold
pKd (FRMPD4, Q14CM0; [3]): 4.1
pKd (GRASP, Q7Z6J2; [3]): 3.66
pKd (MPDZ_12, O75970; [3]): below the threshold
pKd (PDZRN3_1, Q9UPQ7; [3]): 4.84
pKd (IL16_4, Q14005; [3]): 3.58
pKd (LNX2_2, Q8N448; [3]): below the threshold
pKd (FRMPD2_2, Q68DX3; [3]): below the threshold
pKd (Inadl_5, Q8NI35; [3]): below the threshold
pKd (RADIL, Q96JH8; [3]): below the threshold
pKd (MPP6, Q9NZW5; [3]): below the threshold
